Test results from US20220306744A1 (CRESCENDO BIOLOGICS, published 2022).
Blank lines part the entries; values can stand above or below the binder they belong to.

Columns and labels:
[1] = biological target: T1, human PD-1 expressed on cells (CHO TREX human PD1 cell line, full-length human PD-1 sequence) (human, UniProt Q15116 21-288); assay: flow cytometry, PHA-stimulated human CD4+ T cells, Donor 2
T1 construct: Also used for human PD-1 on Jurkat reporter cells, on PathHunter cells and on PHA-stimulated human CD4+ T cells; also called CHO human PD1 cells; CHO human PD-1 cells
Description: Binding of monovalent single domain antibodies and multivalent binding agents to T cells was measured using flow cytometry. Peripheral blood mononuclear cells (PBMCs) were isolated from human blood by density gradient centrifugation then CD4+ T cells purified using a negative selection isolation kit according to the manufacturer's protocol (Miltenyi Biotech cat no 130-096-533). T-cells were stimulated with 2.5 μg/ml PHA for 3 days in RPMI media supplemented with 10% FBS, 2 mM Glutamine, 1× Pen/Strep. Cells were transferred into 96 well plates (75000 per well), blocked for 10 mins with PBS/1% BSA, then incubated with serially diluted VH in staining buffer (PBS/1% BSA) for 1 hour at 4° C. Cells were washed with staining buffer by centrifugation then incubated with 10 μg/ml biotinylated Anti His antibody for 40 mins at 4° C. Cells were washed again then stained with Streptavidin Alexa Fluor-488 (10 μg/ml) and 1:5000 diluted Live Dead near IR stain (Molecular Probes cat no. L10119) for 30 mins at 4° C. After further washing cells were fixed and fluorescence measured by flow cytometry.

[2] = biological target: T1, human PD-1 expressed on cells (CHO TREX …); assay: epitope competition assay on CHO human PD1 cells (labelled VH 1.51a, 1.57b or 1.1a, not specified) after 0 days in human serum
[3] = biological target: T1, human PD-1 expressed on cells (CHO TREX …); assay: epitope competition assay on CHO human PD1 cells (labelled VH not specified) after 0 days in human serum

T1 sequence (Q15116 21-288): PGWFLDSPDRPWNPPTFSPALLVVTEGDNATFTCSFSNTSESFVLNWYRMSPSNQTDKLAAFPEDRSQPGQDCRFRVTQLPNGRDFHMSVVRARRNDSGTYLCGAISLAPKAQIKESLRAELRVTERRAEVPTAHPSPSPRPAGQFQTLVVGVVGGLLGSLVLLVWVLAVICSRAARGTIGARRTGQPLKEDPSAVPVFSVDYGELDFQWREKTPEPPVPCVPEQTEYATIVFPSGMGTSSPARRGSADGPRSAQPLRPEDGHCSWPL

- EC50 [1]: 0.6 nM
- IC50 [2]: 0.9 nM
B1: 1.92b-4GS-1.39a (other)
chain: EVQLVESGGGLVKPGGSLRLSCAASGFTFSDESMTWMRQAPGKGLEWVSYISSGGGVKFYADSVKGRFTISRDNAKNSLYLQMNSLRAEDTAVYYCAREAPLRLGESPHDAFDISGQGTMVTVSSGGGGSGGGGSGGGGSGGGGSEVQLVESGGGLVQPGRSLRLSCAASGFTFDDYALHWVRQAPGKDLEWVSGISWNGGSYGYADSVKGRFTISRDNAKNSLYLQMNSLRAEDTALYYCVREKGPGLTGSTADYYGLDAWGQGTMVTVSS
notes: Biparatopic VH-linker-VH; built from its parts here because it is not clear whether 1112 is the protein or the nucleic acid

- EC50 [1]: 0.4 nM
- IC50 [3]: 1.4 nM
B2: 1.92b-4GS-1.62a (other)
chain: EVQLVESGGGLVKPGGSLRLSCAASGFTFSDESMTWMRQAPGKGLEWVSYISSGGGVKFYADSVKGRFTISRDNAKNSLYLQMNSLRAEDTAVYYCAREAPLRLGESPHDAFDISGQGTMVTVSSGGGGSGGGGSGGGGSGGGGSEVQLVESGGGVVRPGGSLRLSCAASGFTFDDYAMSWVRQAPGKGLEWVSGITWNAGSTGYADSVKGRFTISRDNAKNSLYLQMNSLRAEDTALYYCVRDKYSYAWSYDDFDIWGQGTMVTVSS
notes: Biparatopic VH-linker-VH; also called 1.92-4GS-1.62a; 1.92b-4gs-2.12a
